Experimental data taken from patent publication US20220002395A1 (FAPON BIOTECH, published 2022).

B1: Mutation 1-3 (antibody, mouse IgG2b, kappa, V domains shown)
VH: EVQLQQSGPEVVKPGASVKISCKASGYTITDYYMNWVKQSHGKGLEWIGDLNPINGGTAYQQKFRDKATLTVDKSSNTAYMELRSLTSEDSALYYCTRGAEDYWGQGTTLTVSS
VL: DVVLTQTPLSLSVTIGQPASISCKSSQSIIYSNGKIYLNWFQQRPGQSPKRLMYQLSKLEPGIPDRFSGSGSETDFTLKISRVEAEDLGVYYCLQGTYSPQTFGGGTKLEIKR
notes: Mutation 1 as framework
B2: Mutation 1-6 (antibody, mouse IgG2b, kappa, V domains shown)
VH: EVQLQQSGPEVVKPGASVKISCKASGYTITDYYMNWVKQSHGKGLEWIGDLNPIQGGTAYNQKFRDKATLTVDKSSNTAYMELRSLTSEDSALYYCTKGAEDYWGQGTTLTVSS
VL: DVVLTQTPLSLSVTIGQPASISCKSSQSLIYSNGKIYLNWFQQRPGQSPKRLMYQISKLDPGIPDRFSGSGSETDFTLKISRVEAEDLGVYYCLQATYSPQTFGGGTKLEIKR
notes: Mutation 1 as framework
B3: Mutation 1-4 (antibody, mouse IgG2b, kappa, V domains shown)
VH: EVQLQQSGPEVVKPGASVKISCKASGYTLTDYYMNWVKQSHGKGLEWIGDINPINGGTAYQQKFRDKATLTVDKSSNTAYMELRSLTSEDSALYYCTKGAEDYWGQGTTLTVSS
VL: DVVLTQTPLSLSVTIGQPASISCKSSQSILYSNGKIYLNWFQQRPGQSPKRLMYQVSKLDPGIPDRFSGSGSETDFTLKISRVEAEDLGVYYCLQATYYPQTFGGGTKLEIKR
notes: Mutation 1 as framework
B4: Mutation 1-2 (antibody, mouse IgG2b, kappa, V domains shown)
VH: EVQLQQSGPEVVKPGASVKISCKASGSTLTDYYMNWVKQSHGKGLEWIGDVNPIQGGTAYQQKFRDKATLTVDKSSNTAYMELRSLTSEDSALYYCTKGAEDYWGQGTTLTVSS
VL: DVVLTQTPLSLSVTIGQPASISCKSSQSLLYSNGKIYLNWFQQRPGQSPKRLMYQLSKLDPGIPDRFSGSGSETDFTLKISRVEAEDLGVYYCLQATYTPQTFGGGTKLEIKR
notes: Mutation 1 as framework
B5: Mutation 1-7 (antibody, mouse IgG2b, kappa, V domains shown)
VH: EVQLQQSGPEVVKPGASVKISCKASGYTITDYYMNWVKQSHGKGLEWIGDINPINGGTAYQQKFRDKATLTVDKSSNTAYMELRSLTSEDSALYYCTRGAEDYWGQGTTLTVSS
VL: DVVLTQTPLSLSVTIGQPASISCKSSQSLIYSNGKIYLNWFQQRPGQSPKRLMYQISKLEPGIPDRFSGSGSETDFTLKISRVEAEDLGVYYCLQATYYPQTFGGGTKLEIKR
notes: Mutation 1 as framework
B6: Mutation 1-5 (antibody, mouse IgG2b, kappa, V domains shown)
VH: EVQLQQSGPEVVKPGASVKISCKASGSTLTDYYMNWVKQSHGKGLEWIGDVNPINGGTAYNQKFRDKATLTVDKSSNTAYMELRSLTSEDSALYYCTRGAEDYWGQGTTLTVSS
VL: DVVLTQTPLSLSVTIGQPASISCKSSQSILYSQGKIYLNWFQQRPGQSPKRLMYQVSKLEPGIPDRFSGSGSETDFTLKISRVEAEDLGVYYCLQGTYTPQTFGGGTKLEIKR
notes: Mutation 1 as framework
B7: Mutation 1-1 (antibody, mouse IgG2b, kappa, V domains shown)
VH: EVQLQQSGPEVVKPGASVKISCKASGYTITDYYMNWVKQSHGKGLEWIGDINPIQGGTAYNQKFRDKATLTVDKSSNTAYMELRSLTSEDSALYYCTRGAEDYWGQGTTLTVSS
VL: DVVLTQTPLSLSVTIGQPASISCKSSQSIIYSQGKIYLNWFQQRPGQSPKRLMYQISKLEPGIPDRFSGSGSETDFTLKISRVEAEDLGVYYCLQGTYYPQTFGGGTKLEIKR
notes: Mutation 1 as framework
B8: Mutation 1-30 (antibody, mouse IgG2b, kappa, V domains shown)
VH: EVQLQQSGPEVVKPGASVKISCKASGSTLTDYYMNWVKQSHGKGLEWIGDLNPIQGGTAYNQKFRDKATLTVDKSSNTAYMELRSLTSEDSALYYCTKGAEDYWGQGTTLTVSS
VL: DVVLTQTPLSLSVTIGQPASISCKSSQSIIYSNGKIYLNWFQQRPGQSPKRLMYQISKLDPGIPDRFSGSGSETDFTLKISRVEAEDLGVYYCLQATYSPQTFGGGTKLEIKR
notes: Mutation 1 as framework
B9: Mutation 1-51 (antibody, mouse IgG2b, kappa, V domains shown)
VH: EVQLQQSGPEVVKPGASVKISCKASGSTLTDYYMNWVKQSHGKGLEWIGDLNPINGGTAYQQKFRDKATLTVDKSSNTAYMELRSLTSEDSALYYCTKGAEDYWGQGTTLTVSS
VL: DVVLTQTPLSLSVTIGQPASISCKSSQSLLYSNGKIYLNWFQQRPGQSPKRLMYQLSKLEPGIPDRFSGSGSETDFTLKISRVEAEDLGVYYCLQGTYYPQTFGGGTKLEIKR
notes: Mutation 1 as framework
B10: Mutation 1-42 (antibody, mouse IgG2b, kappa, V domains shown)
VH: EVQLQQSGPEVVKPGASVKISCKASGYTITDYYMNWVKQSHGKGLEWIGDLNPINGGTAYQQKFRDKATLTVDKSSNTAYMELRSLTSEDSALYYCTRGAEDYWGQGTTLTVSS
VL: DVVLTQTPLSLSVTIGQPASISCKSSQSILYSNGKIYLNWFQQRPGQSPKRLMYQISKLDPGIPDRFSGSGSETDFTLKISRVEAEDLGVYYCLQGTYSPQTFGGGTKLEIKR
notes: Mutation 1 as framework
B11: Mutation 1-44 (antibody, mouse IgG2b, kappa, V domains shown)
VH: EVQLQQSGPEVVKPGASVKISCKASGYTITDYYMNWVKQSHGKGLEWIGDVNPINGGTAYQQKFRDKATLTVDKSSNTAYMELRSLTSEDSALYYCTRGAEDYWGQGTTLTVSS
VL: DVVLTQTPLSLSVTIGQPASISCKSSQSILYSNGKIYLNWFQQRPGQSPKRLMYQLSKLDPGIPDRFSGSGSETDFTLKISRVEAEDLGVYYCLQATYSPQTFGGGTKLEIKR
notes: Mutation 1 as framework
B12: Mutation 1-34 (antibody, mouse IgG2b, kappa, V domains shown)
VH: EVQLQQSGPEVVKPGASVKISCKASGTTLTDYYMNWVKQSHGKGLEWIGDINPINGGTAYQQKFRDKATLTVDKSSNTAYMELRSLTSEDSALYYCTRGAEDYWGQGTTLTVSS
VL: DVVLTQTPLSLSVTIGQPASISCKSSQSLLYSNGKIYLNWFQQRPGQSPKRLMYQVSKLDPGIPDRFSGSGSETDFTLKISRVEAEDLGVYYCLQGTYTPQTFGGGTKLEIKR
notes: Mutation 1 as framework
B13: Mutation 1-27 (antibody, mouse IgG2b, kappa, V domains shown)
VH: EVQLQQSGPEVVKPGASVKISCKASGTTLTDYYMNWVKQSHGKGLEWIGDLNPINGGTAYQQKFRDKATLTVDKSSNTAYMELRSLTSEDSALYYCTKGAEDYWGQGTTLTVSS
VL: DVVLTQTPLSLSVTIGQPASISCKSSQSIIYSNGKIYLNWFQQRPGQSPKRLMYQLSKLEPGIPDRFSGSGSETDFTLKISRVEAEDLGVYYCLQGTYSPQTFGGGTKLEIKR
notes: Mutation 1 as framework
B14: Mutation 1-24 (antibody, mouse IgG2b, kappa, V domains shown)
VH: EVQLQQSGPEVVKPGASVKISCKASGTTLTDYYMNWVKQSHGKGLEWIGDLNPIQGGTAYQQKFRDKATLTVDKSSNTAYMELRSLTSEDSALYYCTKGAEDYWGQGTTLTVSS
VL: DVVLTQTPLSLSVTIGQPASISCKSSQSIIYSNGKIYLNWFQQRPGQSPKRLMYQISKLDPGIPDRFSGSGSETDFTLKISRVEAEDLGVYYCLQATYSPQTFGGGTKLEIKR
notes: Mutation 1 as framework
B15: Mutation 1-12 (antibody, mouse IgG2b, kappa, V domains shown)
VH: EVQLQQSGPEVVKPGASVKISCKASGYTITDYYMNWVKQSHGKGLEWIGDLNPINGGTAYNQKFRDKATLTVDKSSNTAYMELRSLTSEDSALYYCTRGAEDYWGQGTTLTVSS
VL: DVVLTQTPLSLSVTIGQPASISCKSSQSILYSNGKIYLNWFQQRPGQSPKRLMYQISKLDPGIPDRFSGSGSETDFTLKISRVEAEDLGVYYCLQGTYSPQTFGGGTKLEIKR
notes: Mutation 1 as framework
B16: Mutation 1-52 (antibody, mouse IgG2b, kappa, V domains shown)
VH: EVQLQQSGPEVVKPGASVKISCKASGTTLTDYYMNWVKQSHGKGLEWIGDINPIQGGTAYQQKFRDKATLTVDKSSNTAYMELRSLTSEDSALYYCTRGAEDYWGQGTTLTVSS
VL: DVVLTQTPLSLSVTIGQPASISCKSSQSIIYSNGKIYLNWFQQRPGQSPKRLMYQVSKLDPGIPDRFSGSGSETDFTLKISRVEAEDLGVYYCLQATYYPQTFGGGTKLEIKR
notes: Mutation 1 as framework
B17: Mutation 1-43 (antibody, mouse IgG2b, kappa, V domains shown)
VH: EVQLQQSGPEVVKPGASVKISCKASGTTLTDYYMNWVKQSHGKGLEWIGDINPINGGTAYQQKFRDKATLTVDKSSNTAYMELRSLTSEDSALYYCTKGAEDYWGQGTTLTVSS
VL: DVVLTQTPLSLSVTIGQPASISCKSSQSILYSNGKIYLNWFQQRPGQSPKRLMYQISKLEPGIPDRFSGSGSETDFTLKISRVEAEDLGVYYCLQGTYSPQTFGGGTKLEIKR
notes: Mutation 1 as framework
B18: Mutation 1-36 (antibody, mouse IgG2b, kappa, V domains shown)
VH: EVQLQQSGPEVVKPGASVKISCKASGTTLTDYYMNWVKQSHGKGLEWIGDLNPIQGGTAYNQKFRDKATLTVDKSSNTAYMELRSLTSEDSALYYCTRGAEDYWGQGTTLTVSS
VL: DVVLTQTPLSLSVTIGQPASISCKSSQSLLYSNGKIYLNWFQQRPGQSPKRLMYQISKLDPGIPDRFSGSGSETDFTLKISRVEAEDLGVYYCLQGTYSPQTFGGGTKLEIKR
notes: Mutation 1 as framework
B19: Mutation 1-40 (antibody, mouse IgG2b, kappa, V domains shown)
VH: EVQLQQSGPEVVKPGASVKISCKASGTTLTDYYMNWVKQSHGKGLEWIGDINPINGGTAYQQKFRDKATLTVDKSSNTAYMELRSLTSEDSALYYCTRGAEDYWGQGTTLTVSS
VL: DVVLTQTPLSLSVTIGQPASISCKSSQSILYSNGKIYLNWFQQRPGQSPKRLMYQLSKLDPGIPDRFSGSGSETDFTLKISRVEAEDLGVYYCLQGTYTPQTFGGGTKLEIKR
notes: Mutation 1 as framework
B20: Mutation 1-9 (antibody, mouse IgG2b, kappa, V domains shown)
VH: EVQLQQSGPEVVKPGASVKISCKASGYTLTDYYMNWVKQSHGKGLEWIGDLNPIQGGTAYNQKFRDKATLTVDKSSNTAYMELRSLTSEDSALYYCTRGAEDYWGQGTTLTVSS
VL: DVVLTQTPLSLSVTIGQPASISCKSSQSIIYSQGKIYLNWFQQRPGQSPKRLMYQLSKLEPGIPDRFSGSGSETDFTLKISRVEAEDLGVYYCLQGTYSPQTFGGGTKLEIKR
notes: Mutation 1 as framework
B21: Mutation 1-38 (antibody, mouse IgG2b, kappa, V domains shown)
VH: EVQLQQSGPEVVKPGASVKISCKASGTTLTDYYMNWVKQSHGKGLEWIGDVNPIQGGTAYQQKFRDKATLTVDKSSNTAYMELRSLTSEDSALYYCTRGAEDYWGQGTTLTVSS
VL: DVVLTQTPLSLSVTIGQPASISCKSSQSLLYSNGKIYLNWFQQRPGQSPKRLMYQLSKLDPGIPDRFSGSGSETDFTLKISRVEAEDLGVYYCLQGTYSPQTFGGGTKLEIKR
notes: Mutation 1 as framework

Biological target: T1, Plasmodium falciparum histidine-rich protein II (HRP-II) (Plasmodium falciparum, UniProt P05227 22-332)
T1 construct: Coating antigen of all ELISAs; also called HRP-II protein; MA-HRPII Ag protein
T1 sequence (looked up): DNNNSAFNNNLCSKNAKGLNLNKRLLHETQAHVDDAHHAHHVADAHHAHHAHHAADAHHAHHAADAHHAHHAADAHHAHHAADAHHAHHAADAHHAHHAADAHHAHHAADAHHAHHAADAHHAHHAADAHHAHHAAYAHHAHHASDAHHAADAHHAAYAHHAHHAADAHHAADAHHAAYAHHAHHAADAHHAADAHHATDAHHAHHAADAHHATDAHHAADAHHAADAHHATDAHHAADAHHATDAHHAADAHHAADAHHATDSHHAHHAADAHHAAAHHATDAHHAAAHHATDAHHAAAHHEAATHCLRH
Assay: indirect ELISA, four antigen coating concentrations;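 note: optical density read across an antibody dilution series at each antigen coating level, curves plotted on log scale, KD derived as reciprocal of the averaged constant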
Method: The OD values corresponding to different antibody concentrations with different coating concentrations are obtained. Under the same coating concentration, the antibody concentrations are used as an abscissa, the 00 values are used as an ordinate, and a logarithmic plot is made. […] An average value thereof is taken and a reciprocal thereof is calculated to get the affinity constant KD.

Binder	Kd [pM]
B1	362
B2	416
B3	465
B4	90.3
B5	329
B6	125
B7	301
B8	233
B9	179
B10	64.3
B11	105
B12	184
B13	165
B14	127
B15	126
B16	182
B17	124
B18	473
B19	83
B20	64.5
B21	88.3
